The source of these data is US20200255869.

This series addresses purified HSA (Abcam, ab201876) (UniProt P02768).
Sequence of UniProt P02768 (P02768 whole entry, looked up): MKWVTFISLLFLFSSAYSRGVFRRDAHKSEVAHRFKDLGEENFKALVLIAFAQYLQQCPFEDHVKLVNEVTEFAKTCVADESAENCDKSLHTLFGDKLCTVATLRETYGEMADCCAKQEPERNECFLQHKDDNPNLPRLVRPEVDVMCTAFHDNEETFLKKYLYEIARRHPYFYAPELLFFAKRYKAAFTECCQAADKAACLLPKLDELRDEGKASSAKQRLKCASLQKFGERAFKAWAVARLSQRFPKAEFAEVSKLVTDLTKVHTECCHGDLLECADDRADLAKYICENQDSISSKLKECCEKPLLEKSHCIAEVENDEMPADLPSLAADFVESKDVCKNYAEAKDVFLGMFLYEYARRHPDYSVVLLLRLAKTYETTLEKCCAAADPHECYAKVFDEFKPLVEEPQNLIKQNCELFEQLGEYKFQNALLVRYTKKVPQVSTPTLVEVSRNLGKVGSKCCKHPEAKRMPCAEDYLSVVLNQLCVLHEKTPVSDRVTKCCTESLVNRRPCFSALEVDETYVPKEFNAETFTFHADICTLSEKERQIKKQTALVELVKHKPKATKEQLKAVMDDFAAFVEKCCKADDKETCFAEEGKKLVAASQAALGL

As to “YscB protein of Talaromyces cellulolyticus strain S6-25”, the “degradation of purified HSA mixed with culture supernatant (30 C, 3 days), SDS-PAGE and Western blotting using an anti-HSA antibody” value is “in the case of the strain deficient in yscB, the bands corresponding to degradation products were eliminated”.
